Legend:
[1] = biological target: hemagglutinin on live influenza A virus, A/California/4/09 H1N1 (Influenza A virus …); experiment: cell-based or functional assay
[2] = biological target: hemagglutinin on whole influenza A virions, A/Wisconsin/67/05 H3N2 (Influenza A virus …); experiment: cell-based or functional assay
[3] = biological target: hemagglutinin on whole influenza A virions, A/Solomon Islands/3/06 H1N1 (Influenza A virus A/Solomon …); experiment: cell-based or functional assay
[4] = biological target: recombinant soluble homotrimeric HA of A/Solomon Islands/3/06 (H1N1) (Influenza A virus A/Solomon …); experiment: HA microarray, BCC supernatant
[5] = biological target: recombinant soluble homotrimeric HA of A/chicken/Vietnam/NCVD-016/08 (H5N1) (Influenza A virus …); experiment: HA microarray, BCC supernatant
[6] = biological target: recombinant soluble homotrimeric HA of A/swine/Ontario/01911-2/99 (H4N6) (Influenza A virus …); experiment: HA microarray, BCC supernatant
[7] = biological target: recombinant soluble homotrimeric HA of A/California/4/09 (H1N1) (Influenza A virus …); experiment: HA microarray, BCC supernatant
[8] = biological target: recombinant soluble homotrimeric HA of A/duck/Yangzhou/02/05 (H8N4) (Influenza A virus …); experiment: HA microarray, BCC supernatant
[9] = biological target: recombinant soluble homotrimeric HA of A/Anhui/1/05 (H5N1) (Influenza A virus A/Anhui/1/2005(H5N1)); experiment: HA microarray, BCC supernatant
[10] = biological target: recombinant soluble homotrimeric HA of A/northern shoveler/California/HKWF115/07 (H6) (Influenza A virus A/northern …); experiment: HA microarray, BCC supernatant
[11] = biological target: recombinant soluble homotrimeric HA of A/Hong Kong/2108/03 (H9N2) (Influenza A virus A/HK/2108/2003(H9N2)); experiment: HA microarray, BCC supernatant
[12] = biological target: recombinant soluble homotrimeric HA of A/Japan/305/57 (H2N2) (Influenza A virus A/Japan/305/1957(H2N2)); experiment: HA microarray, BCC supernatant
[13] = biological target: recombinant soluble homotrimeric HA of A/Wisconsin/67/05 (H3N2) (Influenza A virus …); experiment: HA microarray, BCC supernatant
[14] = biological target: recombinant soluble homotrimeric HA of A/Vietnam/1203/04 (H5N1) (Influenza A virus …); experiment: HA microarray, BCC supernatant
[15] = biological target: recombinant soluble homotrimeric HA of A/Indonesia/5/05 (H5N1) (Influenza A virus …); experiment: HA microarray, BCC supernatant
[16] = biological target: recombinant soluble homotrimeric HA of A/Netherlands/219/03 (H7N7) (Influenza A virus …); experiment: HA microarray, BCC supernatant
[17] = biological target: recombinant trimeric HA of H1N1 A/California/04/09 (Influenza A virus A/California/04/2009 …)

B1: TCN-554 (5277_M05) (antibody, V domains shown)
VH: QVQLVQSGADLKKPGASVKVSCKASGYTFTDYYIHWVRQAPGQGLEWMGWINPESGDTKYAQKFQGRVTMTRDTSITTAYMELGRLRSDDTAVYYCARDVSTTWSWFAPWGQGTLVTVSS
VL: DIVMTQSPDSLAVSLGERATINCRSSQSIFHNSNNENYLAWYQQKPGQPPKLLIYWASTRESGVPDRFSGSGSGTDFTLTISSLQAEDVAVYFCQQYYNAPLTFGGGTKVEIK
For B1, the “% Neutralization” value [1] was 0%.

B2: TCN-557 (5081_A04) (antibody, V domains shown)
VH: QVQLVQSGAEVKKPGASVKVSCKASGHTFTGYYIHWVRQAPGQGLEWMGWINPDSGATSSAQNFQGRVTMTGDTSSSTAYMELSRLSFDDTAVYYCARVLFTSPFDFWGEGTLVTVSS
VL: QAVVTQEPSLAVSPGGTVTLTCGSSTGAVTRGHYPYWFQQKPGQAPRALIYDSAGNRHSWTPARFSGSLLGGKAALTLSGAQPEDEAEYYCLLSYSGVWVFGGGTKLTVL
In the case of B2, the “% Neutralization” value [1] is reported as 10%, the “% Neutralization” value [2] is reported as 0% and the “% Neutralization” value [3] is reported as 7%.

B3: TCN-560 (5084_P10) (antibody, V domains shown)
VH: EVQLVESGGGLVQPGGSLRLSCAASGFIFRNYWMSWVRQAPGKGLEWVANIKQDGREKYYVDSLRGRVNISRDNAENSLYLHMNSLRVEDTAVYFCARARMVVVTGDGFDVWGHGTMVTVSS
VL: DIQMTQSPSSLSASVGDRVTITCRASQNIKRYFNWYQQKPGKAPKLLIYAASNLENGVPSRFSGSGSGTDFTLTISSLQPEDFATYYCQQSFSKSWTFGQGTNVDIK
In the case of B3, the “Trimeric HA Binding: RLU” value [4] is reported as 38800 RLU, the “Trimeric HA Binding: RLU” value [5] is reported as 46000 RLU and the “Trimeric HA Binding: RLU” value [6] is reported as 41600 RLU. The “Trimeric HA Binding: RLU” value [7] was 49200 RLU, the “Trimeric HA Binding: RLU” value [8] was 44700 RLU and the “Trimeric HA Binding: RLU” value [9] was 49100 RLU. The “Trimeric HA Binding: RLU” value [10] was 42300 RLU, the “Trimeric HA Binding: RLU” value [11] was 49400 RLU and the “Trimeric HA Binding: RLU” value [12] was 46700 RLU. The “Trimeric HA Binding: RLU” value [13] was 49100 RLU, the “Trimeric HA Binding: RLU” value [14] was 44000 RLU and the “Trimeric HA Binding: RLU” value [15] was 35900 RLU. The “Trimeric HA Binding: RLU” value [16] was 48500 RLU.

B4: TCN-549 (5092_P04) (antibody, V domains shown)
VH: QVQLVQSGAEVKKPGASVKVSCKASGYTFTGYYMHWVRQAPGQGLEWMGWINPNSGDTNYAQKFQGRVTMTRDTSITTAYMELSSLRSDDTAVYYCARDSPYSSSWSFFDYWGQGPLVTVSS
VL: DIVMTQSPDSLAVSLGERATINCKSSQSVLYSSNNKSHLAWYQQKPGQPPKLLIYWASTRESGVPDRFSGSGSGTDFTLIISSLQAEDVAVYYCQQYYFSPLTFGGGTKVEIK
With B4 the “% Neutralization” value [1] was 0%, the “% Neutralization” value [2] was 100% and the “% Neutralization” value [3] was 0%.

B5: TCN-558 (5248_H10b) (antibody, V domains shown)
VH: QVQLVQSGSEVKKPGTSVKVSCTASGSVFTNYGISWVRQAPGQGLEWMGGIIPLFGAAKYAQKFQGRVTITADESTKTVYMELSRLTSKDTAIYFCAKAPRVYEYYFDQWGQGTPVTVSS
VL: EIVMTQFPATLSVSPGERVTLSCRASQSVSNNLAWYQQKPGQPPRLLIYDASTRATGVPAKFSGTGSGTEFTLSISSLQSEDFAVYYCQQYHNWPPSYSFGLGTKLEIK
For B5, the “% Neutralization” value [1] was 96%.

B6: TCN-547 (5092_F11) (antibody, V domains shown)
VH: QVQLQESGPGLVKPSQTLSLTCTVSGDSISSVDHYWSWIRQHPVKGLEWIGFMYYSASTYYNPSLKSRVTISTDTSKNQFSLRLSSVTAADTAVYYCARGTCAGDCSLHYYYYGLDVWGQGRTVTVSS
VL: DIQMTQSPSSLSASVGDRVTITCRASQSISSYLNWYQHKPGKAPKVLMYAVSILQSGVPSRFSGSGSGADFTLTISSLQPEDFATYYCQQSYSSPLTFGGGTKVEIK
In the case of B6, the “% Neutralization” value [1] is reported as 0%, the “% Neutralization” value [2] is reported as 88% and the “% Neutralization” value [3] is reported as 0%.

B7: TCN-556 (5089_K12) (antibody, V domains shown)
VH: QVQLVQSGAEVKKPGASVKVSCKASGYTFIGYDMHWVRQAPGQGLEWMGWINAKRGGTNYAQKFQGRVTMTRDTSISTAYMELNSLRSDDTAVYYCARGVGSRTTIFGVLNPEFDYWGQGTLVTVSS
VL: QSALTQPPSASGSPGQSVTISCTGSSSDVGGYDYVSWYQQHPGKAPKLLIYEVTKRPSGVPDRFSGSKSGNTASLTVSGLQAEDEADYYCSSYAGNYNHVFGPGTKVTVL
B7 was tested, and the “Trimeric HA Binding: RLU” value [4] was 2850 RLU, the “Trimeric HA Binding: RLU” value [5] was 8800 RLU and the “Trimeric HA Binding: RLU” value [6] was 5600 RLU. For the same binder, the “Trimeric HA Binding: RLU” value [7] was 14600 RLU, the “Trimeric HA Binding: RLU” value [8] was 16900 RLU and the “Trimeric HA Binding: RLU” value [9] was 3700 RLU. The “Trimeric HA Binding: RLU” value [10] was 11900 RLU, the “Trimeric HA Binding: RLU” value [11] was 7410 RLU and the “Trimeric HA Binding: RLU” value [12] was 5610 RLU. For the same binder, the “Trimeric HA Binding: RLU” value [13] was 9320 RLU, the “Trimeric HA Binding: RLU” value [14] was 13800 RLU and the “Trimeric HA Binding: RLU” value [15] was 8450 RLU. The “Trimeric HA Binding: RLU” value [16] was 10600 RLU.

B8: TCN-555 (5246_L16) (antibody, V domains shown)
VH: QVQLVQSGAEVKRPGSSVKVSCTASGGIFRKNAISWVRQAPGQGLEWMGGIIAVFNTANYAQKFQNRVKITADESGNTAYMELSSLTSDDTAVYYCASHPKYFYGSGSYPDFWGQGTLVTVSS
VL: QSALTQPRSVSGSPGQSITISCTGGSSDIGASNSVSWYQQHPGKAPKLVIFDVTERPSGVPHRFSGSKSGNTASLTVSGLQPDDEADYFCCAYGGKYLVVFGGGTKVTVL
In the case of B8, the “% Neutralization” value [1] is reported as 89%.

B9: TCN-548 (5092_P01) (antibody, V domains shown)
VH: QVQLQESGPGLVKPSETLSLTCTVSSGPMSDYYWSWIRQPPGKGLEWIGHVSVSHGGRTKSNPSVMSRVTISVETSKNQFSLKLTSVTAADTAVYYCARLNYYDRSGYHSPDGPSNNWFDPWGQGTLVTVSS
VL: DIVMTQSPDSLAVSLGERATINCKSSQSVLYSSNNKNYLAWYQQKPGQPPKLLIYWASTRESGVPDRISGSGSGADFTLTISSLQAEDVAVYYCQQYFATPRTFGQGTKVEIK
For B9, the “% Neutralization” value [1] was 0%, the “% Neutralization” value [2] was 96% and the “% Neutralization” value [3] was 0%.

B10: Fab fragment of TCN-533 (5256_A17a) (Fab, V domains shown)
VH: QVQLVQSGADVKKPGSSVTVSCKASGGSFSNYGINWVRQAPGQGLEWMGGIIPLINAPNYAPKFQGRVTITADMFSNIVSLQLTSLRTDDTAVYYCARRKMTTAIDYWGQGTLVTVSS
VL: QPVLTQPPSASASLGASVTLTCTLSSAYSNYKVDWYQQRPGKGPRFVMRVGTGGIVGSKGDGIPDRFSVLGSGLNRYLTIKNIQEEDESDYHCGADHGSGSNFVSPYVFGGGTKLTVL
B10 showed a Kd [17] of 0.129 nM, a koff [17] of 8.2e-05 s⁻¹ and a kon [17] of 635000 M⁻¹ s⁻¹.

Reference: patent US20150086555A1 (THERACLONE SCIENCES, published 2015)
